According to patent US20240101959A1, “USE OF IL-2R-BETA-GAMMA AGONIST PEPTIDES IN CELL MANUFACTURING” (MEDIKINE, INC., priority 2022, published 2024):
Positions of bridges follow the written chain, without caps; N, C: chain ends. No end group written: not given here.

T1: hu-IL-2Rβ subunit (human, UniProt P14784 27-240, limits assumed)
T1 construct: also called human interleukin-2 receptor subunit β; CD122
T1 sequence (looked up): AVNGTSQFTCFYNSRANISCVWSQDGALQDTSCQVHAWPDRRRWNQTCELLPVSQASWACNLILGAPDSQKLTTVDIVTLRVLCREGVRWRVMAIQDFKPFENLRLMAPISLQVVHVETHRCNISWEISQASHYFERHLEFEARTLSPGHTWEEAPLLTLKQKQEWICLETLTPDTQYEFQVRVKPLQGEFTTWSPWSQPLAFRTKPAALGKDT


What follows are binders tested against T1, hu-IL-2Rβ subunit (assay: phage ELISA competition assay).

Binder	IC50
HWVRDCFLAKVGELCDLFLW [SEQ ID NO 536]	< 100 µM
QITDSGWYPCWVAKVGELCDMD [SEQ ID NO 495]	< 100 µM
VSRYDCYIAKVGELCDFFEF [SEQ ID NO 515]	< 100 µM
KGSSWFPCYFAQVGDLCDLY [SEQ ID NO 487]	< 100 µM
KWVHDCFLAKVGDVCDLFVV [SEQ ID NO 529]	< 100 µM
LPFQDCYIAQVGELCDLPGT [SEQ ID NO 505]	< 100 µM
WQIFDCYLAQVGELCDLQDT [SEQ ID NO 511]	< 100 µM
RSLVDCFLVKVGDLCDFFNW [SEQ ID NO 530]	< 100 µM
SRVWHPCWLARVGELCDLEVSD [SEQ ID NO 499]	< 100 µM
WLPCWLAKLGELCDLEWLPCW [SEQ ID NO 111]	< 100 µM
RLASDWWDCYIAKVGELCDF (not fully specified (bridges); cysteine pairing not given here) [SEQ ID NO 524]	< 100 µM
RLLRDCFLAKVGDLCELFVW [SEQ ID NO 525]	< 100 µM
WYPCWLAQVGELCDRE [SEQ ID NO 488]	< 100 µM
RAWWWPCELAQVGELCDLEPSS [SEQ ID NO 490]	< 100 µM
RYVPDCLKAQVGDLCDFFAW [SEQ ID NO 492]	< 100 µM
ETEQMSWYPCWVAQLWELCDLD (disulfide 10-19 (inferred)) [SEQ ID NO 110]	< 100 µM
SWLSDLQDCYIAQVGDLCQI [SEQ ID NO 523]	< 100 µM
WWPCEWARIGELCDLE [SEQ ID NO 486]	< 100 µM
AHFYDCFWAKAGELCDLWPS [SEQ ID NO 532]	< 100 µM

Binder	IC50
WYPCWMAKVGELCDME [SEQ ID NO 494]	< 100 µM
DKAGPNFYPCWLAHVGELCDQA [SEQ ID NO 483]	< 100 µM
WFPCWLAKVGELCDRDDLAGPS [SEQ ID NO 485]	< 100 µM
DGWWPCWIAQVGELCDLEDPV (not fully specified (bridges); cysteine pairing not given here) [SEQ ID NO 504]	< 100 µM
RVRRHSWWPCEIAVVGELCDLE (not fully specified (bridges); cysteine pairing not given here) [SEQ ID NO 503]	< 100 µM
WYPCWLAKVGELCDQE [SEQ ID NO 491]	< 100 µM
WLPCWIAKIGDLCDLD [SEQ ID NO 498]	< 100 µM
HRGWVGWYPCEYALPGQLCDLE [SEQ ID NO 501]	< 100 µM
WEHEFTWYPCWIAQVGELCDMD [SEQ ID NO 500]	< 100 µM
QFVKDCFLAQVGDLCELFLW [SEQ ID NO 538]	< 100 µM
SWHAETWYPCWLAQVGELCDLD [SEQ ID NO 480]	< 100 µM
QWFHNCFLARVGDTCDLFLW [SEQ ID NO 526]	< 100 µM
VVCYACDIAHVGELCDLTCR [SEQ ID NO 508]	< 100 µM
RWMFDCLFARVGELCDIRPW [SEQ ID NO 506]	< 100 µM
TRRWYPCYLAKLGELCDLFEGGTR [SEQ ID NO 115]	< 100 µM
TPWYDCYIANVGDLCDFASA [SEQ ID NO 509]	< 100 µM
EWFHDCFLAKVGDLCDLFLW [SEQ ID NO 481]	< 100 µM
KWFHDCFLAKVGDLCDLFLW [SEQ ID NO 533]	< 100 µM
WEWYDCLMAQVGELCDFEGN [SEQ ID NO 517]	< 100 µM

Further lines, results first:

IC50	Binder
< 100 µM	YRWWYPCDIAQVGELCDLDYLL [SEQ ID NO 496]
< 100 µM	RYLYDCFLALVGDLCVKFHQ [SEQ ID NO 531]
< 100 µM	LVYYDCYMAQVGELCDLPSL [SEQ ID NO 514]
< 100 µM	FGDDFCRFIPLFEMCTTDVE [SEQ ID NO 513]
< 100 µM	SGKTQMWNPCYVAKVGELCDLV [SEQ ID NO 482]
< 100 µM	THVHDCFLAKVGDLCDLFIV [SEQ ID NO 535]
< 100 µM	LESLDCFFARIGDLCEIWDV [SEQ ID NO 510]
< 100 µM	RYVHDCFIAQVGDLCDLFLH [SEQ ID NO 528]
< 100 µM	QDRRSPWYPCWMAKLGELCDLA [SEQ ID NO 114]
< 100 µM	SNWHDCLFAQVGELCDLPGS (not fully specified (bridges); cysteine pairing not given here) [SEQ ID NO 521]
< 100 µM	GRYPDCYIAHVGELCEFYDG (not fully specified (bridges); cysteine pairing not given here) [SEQ ID NO 512]
< 100 µM	WGKLVRDCFLAKVGDLCDLFLW [SEQ ID NO 534]
< 100 µM	MRTTFWYDCYIAQVGELCDF (not fully specified (bridges); cysteine pairing not given here) [SEQ ID NO 479]
< 100 µM	WGRNRSWYPCWMAQLGELCDLE [SEQ ID NO 113]
< 100 µM	YDCYIAQVGELCDI [SEQ ID NO 522]
< 100 µM	AGFRGRWWPCEYAQVGELCDLE [SEQ ID NO 484]
< 100 µM	RGVYFPCWLAKVGDLCDSDEF [SEQ ID NO 489]
< 100 µM	SMDQDCYFAQVGELCVLFNQ [SEQ ID NO 519]
< 100 µM	HGILDCYFAKVGELCELFDW [SEQ ID NO 537]
< 100 µM	ELLVDCFKVKVGELCDLFFG [SEQ ID NO 527]
< 100 µM	GGYYDCLIAEVGELCDMPGQ [SEQ ID NO 507]
< 100 µM	GGYYDCLIAEVGELCDIYGR [SEQ ID NO 520]
< 100 µM	WAFYDCRNAQVGDFCDLWEF [SEQ ID NO 518]
< 100 µM	ERRPDTWFPCWRALVGELCDLE [SEQ ID NO 112]
< 100 µM	WWPCYLAQIGELCDLV [SEQ ID NO 493]
< 100 µM	VTVQDCYFARVGDLCDLFSP [SEQ ID NO 516]
